Measured values published in paper PMC8880691, “Impact of Linker Modification and PEGylation of Vancomycin Conjugates on Structure-Activity Relationships and Pharmacokinetics” (Pharmaceuticals, 2022).
Where a name gives a salt, the structure may show the parent alone.

Columns and labels:
[1] = tested on: erythrocytes; type: cell-based, human
Description: To determine the toxicity to red blood cells and thus confirm the selectivity to bacteria, a hemoglobin release assay was carried out with VAN1, VAN2 and VAN3, as well as the PEGylated conjugate, VAN:PEG1.
To exclude lytic activity and to evaluate the toxicological potential of the conjugates, hemolysis studies were performed as previously described. Briefly, fresh heparinized blood of four male, fasted volunteers was taken, and erythrocytes were purified by centrifugation of the blood at 2500 rpm for 10 min. The supernatant was removed, and the resulting pellet was washed with PBS at least three times, until the supernatant remained clear. The conjugates were serially diluted from stock solutions (in phosphate-buffered saline) in a 96-well plate at concentrations ranging from 120 µg/mL to 0.23 µg/mL (VAN1) or 16 µg/mL to 0.03 µg/mL (VAN2, VAN3 and VAN:PEG1), resulting in a final volume of 50 µL. A solution of Triton®X-100 in PBS was used as positive control. Finally, 50 µL of the washed erythrocytes was loaded into each well. After incubation for 30 min at 37 °C, 75 µL PBS was added to each well, and the plates were centrifuged for 5 min at 4000 rpm. A total of 50 µL of the supernatants was then transferred into a new polystyrene, flat-bottom 96-well plate, and the absorbances were measured at 554 nm using a Tecan microplate reader. Hemolysis was calculated as follows: Hemolysis %=100×Asubstance−Aneg. control/ATriton−Aneg. control
The negative control was erythrocytes, treated as described but using only PBS.

[2] = tested on: B. subtilis DSM10; experiment: microbe, parasite or virus in culture; type: cell-based
Description: (§1) The conjugates were tested in microdilution assays according to CLSI (Clinical and Laboratory Standards Institute) and EUCAST (European Committee on Antimicrobial Susceptibility Testing) guidelines on both vancomycin-sensitive and-resistant Gram-positive bacterial strains.
(§2) Antimicrobial activity assays were performed by microdilution and conducted in accordance with CLSI and EUCAST guidelines. Serial dilutions in MHB II (cation adjusted) were performed on 96-well plates using water-stock solutions of the compounds at different concentrations. Overnight cultures of bacterial strains were used to obtain bacteria in the logarithmic growth phase. Bacteria were adjusted to a McFarland corresponding to 1 × 10^8 cfu/mL. After a 1:100 dilution, the culture broth was loaded onto the 96-well polypropylene plates, resulting in a final bacterial concentration of 5 × 10^5 cfu/mL. Plates were then incubated at 37 ± 1 °C for 18–24 h. The MICs were assessed as the lowest concentration without visible growth.
Table S1. Minimum inhibitory concentration against B. subtilis DSM10.
activity. Shown is the median of at least three independent measurements (range is shown in brackets).
Compound Minimum Inhibitory Concentration
against B. subtilis DSM10 [mg/L] […]
[mg/L] [% hemolysis] [% hemolysis] [% hemolysis] […]

[3] = Molecular imaging (scintigraphy) of 125I-labeled compounds; type: in vivo, female Wistar rats; settings: rat
Description: (§3) Molecular imaging and biodistribution studies were performed for VAN1 and VAN2, as well as for VAN:PEG1 and VAN:PEG2, using female Wistar rats.
(§4) For biodistribution and pharmacokinetic studies, compounds were radiolabeled with ^125I. The previously described method for the insertion of an additional D-tyrosine to the N-terminus of the peptide moiety was used to enable […] substitution for VAN1 and VAN2 [11]. For the PEGylated derivatives, VAN:PEG1 and VAN:PEG2, tyrosine-modified FU002y was used to synthesize the intermediate. Radiolabeling was performed using the chloramine T method as previously described. Thus, a 1 mM stock solution of the respective compound in phosphate buffer/dimethyl sulfoxide was prepared. The required amount of the radionuclide (^125I) was added to a mixture of 25 μL of the stock solution and 25 μL of phosphate buffer (0.25 mM; pH = 7.5). Purification of the labeled compounds was performed by semi-preparative HPLC. Analysis was conducted by radio HPLC (Agilent 1100 series) using a Chromolith® Performance RP-18e, 100 × 3 mm column, applying a linear gradient of 0.1% TFA in water (eluent A) to 0.1% TFA in acetonitrile (eluent B) within 5 min (flow rate, 2 mL/min; UV absorbance, λ = 214 nm; γ-detection). Animals were anaesthetized by isoflurane inhalation, and appropriate amounts of the radiolabeled conjugate dissolved in 100 µL 0.9% NaCl solution were injected into the tail vein. Cumulative scintigraphic images were taken after 10 min and 1, 2, 3, 5 and 24 h. For the biodistribution studies, animals were sacrificed at the indicated points in time. The activity of the weighed organs was measured in comparison with standards. Tissue-associated activity was related to the total injected dose (ID) and expressed as a percentage of the total injected dose per gram of tissue (%ID/g). The data were calculated afterwards to obtain the respective organ/organ or organ/blood ratios.

[4] = Biodistribution study with excised organs, 125I-labeled compounds; type: in vivo, female Wistar rats; settings: rat
Description: as §3
To further compare the two modification strategies, the biodistribution profiles of VAN1, VAN2 and vancomycin were compared using excised organs. This study confirms significant liver accumulation in most cases.
as §4

[5] = tested on: vanB vancomycin-resistant enterococci; experiment: Microdilution assay on vancomycin-resistant strains of the vanB type; type: cell-based
Description: as §1, §2

[6] = tested on: vanC vancomycin-resistant enterococci; experiment: Microdilution assay on vancomycin-resistant strains of the vanC type; type: cell-based; settings: resistant strains of the vanC type (low-level resistant)
Description: as §1, §2

[7] = 10 min post injection, tail vein, from %ID/g of excised organs

Row | Structure (SMILES) | hemolytic activity [1] | Minimum Inhibitory Concentration against B. subtilis DSM10 [2] | pharmacokinetic behavior by molecular imaging ([3]; in vivo) | Ratio Kidney/Blood ([4]; in vivo) | Ratio Liver/Blood ([4]; in vivo) | Ratio Liver/Kidney ([4]; in vivo) | overcoming the molar-resistance breakpoint (EUCAST), vanB type [5] | overcoming the molar-resistance breakpoint (EUCAST), vanC type [6] | pharmacokinetic behavior by molecular imaging ([3]; 125I-labeled, tail vein injection, scintigraphic images 10 min to 24 h) | Ratio Kidney/Blood [4, 7] | Ratio Liver/Blood [4, 7] | Ratio Liver/Kidney [4, 7] | MIC ([2]; Bacillus subtilis, DSM10, read-out: Minimum Inhibitory Concentration against B. subtilis DSM10)
1 | CC(C)C[C@H](C(=O)N[C@H]1C(=O)N[C@@H](CC(N)=O)C(=O)N[C@H]2C(=O)N[C@H]3C(=O)N[C@H](C(=O)N[C@H](C(=O)O)c4cc(O)cc(O)c4-c4cc3ccc4O)[C@H](O)c3ccc(c(Cl)c3)Oc3cc2cc(c3O[C@@H]2O[C@H](CO)[C@@H](O)[C@H](O)[C@H]2O[C@H]2C[C@](C)(N)[C@H](O)[C@H](C)O2)Oc2ccc(cc2Cl)[C@H]1O)N(C)C(=O)CN1C(=O)CC(SC[C@H](NC(=O)[C@H](CCCNC(=N)N)NC(=O)[C@H](CCCNC(=N)N)NC(=O)[C@H](CCCNC(=N)N)NC(=O)[C@H](CCCNC(=N)N)NC(=O)[C@H](CCCNC(=N)N)NC(=O)[C@@H](N)CCCNC(=N)N)C(N)=O)C1=O (stereo partly drawn) [VAN3] | None of the compounds showed significant hemolytic activity | < 0.125 mg/L |  |  |  |  |  |  |  |  |  |  | 
2 | CC(C)C[C@H](C(=O)N[C@H]1C(=O)N[C@@H](CC(N)=O)C(=O)N[C@H]2C(=O)N[C@H]3C(=O)N[C@H](C(=O)N[C@H](C(=O)O)c4cc(O)cc(O)c4-c4cc3ccc4O)[C@H](O)c3ccc(c(Cl)c3)Oc3cc2cc(c3O[C@@H]2O[C@H](CO)[C@@H](O)[C@H](O)[C@H]2O[C@H]2C[C@](C)(N)[C@H](O)[C@H](C)O2)Oc2ccc(cc2Cl)[C@H]1O)N(C)C(=O)CCCCCCCCCCN1C(=O)CC(SC[C@H](NC(=O)[C@H](CCCNC(=N)N)NC(=O)[C@H](CCCNC(=N)N)NC(=O)[C@H](CCCNC(=N)N)NC(=O)[C@H](CCCNC(=N)N)NC(=O)[C@H](CCCNC(=N)N)NC(=O)[C@@H](N)CCCNC(=N)N)C(N)=O)C1=O (stereo partly drawn) [VAN1] | None of the compounds showed significant hemolytic activity | 1 (0.5–1) mg/L | accumulates quickly in the liver | 2.22 | 10.13 | 4.47 |  |  |  |  |  |  | 
3 | CC(C)C[C@H](C(=O)N[C@H]1C(=O)N[C@@H](CC(N)=O)C(=O)N[C@H]2C(=O)N[C@H]3C(=O)N[C@H](C(=O)N[C@H](C(=O)O)c4cc(O)cc(O)c4-c4cc3ccc4O)[C@H](O)c3ccc(c(Cl)c3)Oc3cc2cc(c3O[C@@H]2O[C@H](CO)[C@@H](O)[C@H](O)[C@H]2O[C@H]2C[C@](C)(N)[C@H](O)[C@H](C)O2)Oc2ccc(cc2Cl)[C@H]1O)N(C)C(=O)CCOCCOCCOCCOCCOCCOCCOCCOCCOCCOCCOCCOCCNC(=O)CCN1C(=O)CC(SC[C@H](NC(=O)[C@H](CCCNC(=N)N)NC(=O)[C@H](CCCNC(=N)N)NC(=O)[C@H](CCCNC(=N)N)NC(=O)[C@H](CCCNC(=N)N)NC(=O)[C@H](CCCNC(=N)N)NC(=O)[C@@H](N)CCCNC(=N)N)C(N)=O)C1=O (stereo partly drawn) [VAN2] | None of the compounds showed significant hemolytic activity | 2 (1–4) mg/L | rapid liver accumulation can still be observed, in addition to renal elimination | 10.09 | 9.25 | 0.92 | able to overcome the molar-resistance breakpoint | able to overcome the molar-resistance breakpoint |  |  |  |  | 
4 | CN[C@H](CC(C)C)C(=O)N[C@H]1C(=O)N[C@@H](CC(N)=O)C(=O)N[C@H]2C(=O)N[C@H]3C(=O)N[C@H](C(=O)N[C@H](C(=O)O)c4cc(O)cc(O)c4-c4cc3ccc4O)[C@H](O)c3ccc(c(Cl)c3)Oc3cc2cc(c3O[C@@H]2O[C@H](CO)[C@@H](O)[C@H](O)[C@H]2O[C@H]2C[C@](C)(N)[C@H](O)[C@H](C)O2)Oc2ccc(cc2Cl)[C@H]1O [Vancomycin, vancomycin hydrochloride] |  |  |  |  |  |  |  |  | fast renal elimination | 2.16 | 0.36 | 0.17 | 0.25 µg/mL
